The stoichiometry N is a count of units in the complex or per binding partner.

These results are taken from paper doi:10.64898/2025.12.01.691523.

The target in this assay is Anopheles culicifacies ferritin heavy chain homolog (AcFtnHCH), recombinant, refolded (Anopheles culicifacies). As to the kind of experiment: native gel or EMSA. For orientation: Mobility shift assays separate free from complexed probe on a gel.

As to “Anopheles culicifacies ferritin heavy chain homolog (AcFtnHCH), recombinant, refolded (natural protein)”, the stoichiometry N came to 24.
